From publication doi:10.1101/2020.06.09.141986

Molecular target: Aldob (aldolase B) (UniProt P05062)
Assay: anti-Flag co-IP, immunoblot
Details: reference: Akt1 wild type

Akt1 (from UniProt P31749) Akt1-S473A
binding against the reference (sites S473): weaker

Akt1 (from UniProt P31749) Akt1-T308A
binding against the reference (sites T308): weaker
